# IntAct's records for PubMed 23622247
# B1: Rho-related GTP-binding protein RhoE (Mus musculus), P61588 (parent)
# chain: MKERRASQKLSSKSIMDPNQNVKCKIVVVGDSQCGKTALLHVFAKDCFPENYVPTVFENYTASFEIDTQRIELSLWDTSGSPYYDNVRPLSYPDSDAVLICFDISRPETLDSVLKKWKGEIQEFCPNTKMLLVGCKSDLRTDVSTLVELSNHRQTPVSYDQGANMAKQIGAATYIECSALQSENSVRDIFHVATLACVNKTNKNVKRNKSQRATKRISHMPSRPELSAVATDLRKDKAKSCTVM
# Variants of: B1
# Details: with 1433b_human YWHAB
row,Variant,effect of a mutation on the interaction
1,S210A;T214A;S218A,disrupting interaction strength

# Variants of: B1
# Details: with 1433b_human YWHAB
# Remark: another data set of the same source
row,Variant,effect of a mutation on the interaction
1,S7A;S11A;S210A;T214A;S218A;S222A;S240A,disrupting interaction strength

# Variants of: B1
# Details: with rhg05_human ARHGAP5, Q13017
# Sequence of rhg05_human ARHGAP5, Q13017 (Q13017 whole entry): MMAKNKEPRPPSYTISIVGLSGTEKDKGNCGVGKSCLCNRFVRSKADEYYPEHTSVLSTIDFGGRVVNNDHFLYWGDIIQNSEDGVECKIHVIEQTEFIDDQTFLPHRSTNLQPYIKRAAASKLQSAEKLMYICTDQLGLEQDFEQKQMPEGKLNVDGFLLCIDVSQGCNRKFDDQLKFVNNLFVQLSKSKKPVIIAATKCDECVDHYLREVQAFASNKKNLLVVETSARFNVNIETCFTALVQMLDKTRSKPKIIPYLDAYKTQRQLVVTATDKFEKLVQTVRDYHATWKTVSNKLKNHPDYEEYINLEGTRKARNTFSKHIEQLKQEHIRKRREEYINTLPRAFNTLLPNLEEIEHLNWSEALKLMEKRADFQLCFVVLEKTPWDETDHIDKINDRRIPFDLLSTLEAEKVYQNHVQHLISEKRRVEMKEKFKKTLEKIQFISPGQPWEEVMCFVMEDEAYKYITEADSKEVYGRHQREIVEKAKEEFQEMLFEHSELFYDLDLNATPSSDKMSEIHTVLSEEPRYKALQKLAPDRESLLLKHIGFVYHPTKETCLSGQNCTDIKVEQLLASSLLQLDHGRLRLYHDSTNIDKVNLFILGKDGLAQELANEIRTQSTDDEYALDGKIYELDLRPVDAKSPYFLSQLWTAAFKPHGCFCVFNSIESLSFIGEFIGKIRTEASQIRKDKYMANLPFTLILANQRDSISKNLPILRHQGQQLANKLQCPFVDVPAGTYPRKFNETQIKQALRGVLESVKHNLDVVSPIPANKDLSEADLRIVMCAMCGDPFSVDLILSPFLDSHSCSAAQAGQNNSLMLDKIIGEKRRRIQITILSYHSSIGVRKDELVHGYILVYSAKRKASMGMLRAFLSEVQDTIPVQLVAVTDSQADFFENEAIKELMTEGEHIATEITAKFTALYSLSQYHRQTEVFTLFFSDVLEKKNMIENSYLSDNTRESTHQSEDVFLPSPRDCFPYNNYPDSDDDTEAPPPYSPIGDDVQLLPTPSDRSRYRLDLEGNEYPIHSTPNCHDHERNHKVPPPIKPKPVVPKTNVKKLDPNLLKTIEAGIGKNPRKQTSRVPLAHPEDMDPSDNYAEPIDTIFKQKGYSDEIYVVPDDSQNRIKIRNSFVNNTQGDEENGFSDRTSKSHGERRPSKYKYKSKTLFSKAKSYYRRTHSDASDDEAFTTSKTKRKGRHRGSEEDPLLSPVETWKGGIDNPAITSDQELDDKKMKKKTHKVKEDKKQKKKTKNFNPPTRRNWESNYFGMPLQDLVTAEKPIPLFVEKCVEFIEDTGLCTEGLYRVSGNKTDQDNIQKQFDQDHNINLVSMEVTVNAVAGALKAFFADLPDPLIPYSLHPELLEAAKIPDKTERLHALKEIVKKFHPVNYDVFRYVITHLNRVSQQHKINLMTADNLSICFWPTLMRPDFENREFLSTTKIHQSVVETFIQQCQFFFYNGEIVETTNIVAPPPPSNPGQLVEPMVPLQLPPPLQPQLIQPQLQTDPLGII
row,Variant,effect of a mutation on the interaction
1,T55V,disrupting interaction strength
